For three substances, Kd results are on record in article PMC6834741.

Experiment [1] concerns the target His-tagged recombinant human FcγRIIIb (human) (UniProt O75015). Description: SPR; Biacore T200; His-tagged FcγR captured by an anti-His antibody on a CM5 chip; dilution series of antibody as analyte; 1:1 kinetic binding model; triplicate. A general note: SPR reads the build-up and loss of mass on a sensor chip optically.
Experiment [2] deals with His-tagged recombinant human FcγRIIIa (158 V) (human). The experiment is described as above.

“And” between values parts separate entries of the source, which are not always exact repeats. Equal values may be shown once.

Chain of UniProt O75015 (O75015 17-200): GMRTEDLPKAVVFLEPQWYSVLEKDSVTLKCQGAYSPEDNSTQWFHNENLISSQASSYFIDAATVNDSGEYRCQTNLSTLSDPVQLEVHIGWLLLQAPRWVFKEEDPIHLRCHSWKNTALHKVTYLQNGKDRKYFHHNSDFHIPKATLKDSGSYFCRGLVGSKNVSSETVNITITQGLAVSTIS

On to Trastuzumab (US) (antibody), for which the Kd in experiment [1] turned out to be 11.8 µM; in experiment [2], 0.146 µM.

Turning to Trastuzumab (EU) (antibody), the Kd in experiment [1] turned out to be 13.8 µM; in experiment [2] it was 0.193 µM.

Take ABP 980 (antibody): the Kd in experiment [1] was 8.14 µM and 8.29 µM; in experiment [2], 0.0913 µM.

A word on the Kd: it is a measure of binding affinity in units of concentration.
